Target: T1, ^15N-labelled ubiquitin (WT, untagged) (UniProt P0CG48 1-76, ^15N-labelled)
T1 construct: ubiquitin, the 76-residue mature protein; also called ^15N-ubiquitin; source: E. coli BL21 (DE3) in M9 medium with ^15N-ammonium chloride, purified (cation exchange, Superdex 75 SEC)
Assay: NMR titration; ^1H-^15N HSQC of ^15N-ubiquitin titrated with unlabelled UBR4-UBL; 25 mM NaPi pH 7.0, 150 mM NaCl, 1 mM TCEP, 10% D2O; global fit of chemical shift perturbations to 1:1 binding
Conditions: both partners purified

Kd: 124 µM
B1: 6×His-tagged UBR4-UBL (residues 4340–4463) (domain or fragment, human, UniProt Q5T4S7-1 4340-4463, looked up)
chain: YPEENEVTEFFVTLEKDPQQEDFLQGRMPGNPYSSNEPGIGPLMRDIKNKICQDCDLVALLEDDSGMELLVNNKIISLDLPVAEVYKKVWCTTNEGEPMRIVYRMRGLLGDATEEFIESLDSTT
notes: UBR4 ubiquitin-like (UBL) domain, residues 4340–4463 of UniProt Q5T4S7-1; also called UBL domain; UBR4 UBL domain; source: E. coli BL21 (DE3), purified (Ni-NTA HisTrap FF, Superdex 75 SEC)

— article PMC12286842 (Nature, 2025)
